Measurements published in patent US20110142849A1.
pIC50: −log10 of the molar value.

Target: recombinant human Pcsk9 (aa 31-692) with C-terminal his6 tag (human) (UniProt Q8NBP7)
Experiment: TR-FRET, disruption of hLDL-R-Eu and hPcsk9-AF

Sequence of recombinant human Pcsk9 (aa 31-692) with C-terminal his6 tag (human) (Q8NBP7 other isoform, or with tags, fused parts or gaps limits assumed, form in doubt): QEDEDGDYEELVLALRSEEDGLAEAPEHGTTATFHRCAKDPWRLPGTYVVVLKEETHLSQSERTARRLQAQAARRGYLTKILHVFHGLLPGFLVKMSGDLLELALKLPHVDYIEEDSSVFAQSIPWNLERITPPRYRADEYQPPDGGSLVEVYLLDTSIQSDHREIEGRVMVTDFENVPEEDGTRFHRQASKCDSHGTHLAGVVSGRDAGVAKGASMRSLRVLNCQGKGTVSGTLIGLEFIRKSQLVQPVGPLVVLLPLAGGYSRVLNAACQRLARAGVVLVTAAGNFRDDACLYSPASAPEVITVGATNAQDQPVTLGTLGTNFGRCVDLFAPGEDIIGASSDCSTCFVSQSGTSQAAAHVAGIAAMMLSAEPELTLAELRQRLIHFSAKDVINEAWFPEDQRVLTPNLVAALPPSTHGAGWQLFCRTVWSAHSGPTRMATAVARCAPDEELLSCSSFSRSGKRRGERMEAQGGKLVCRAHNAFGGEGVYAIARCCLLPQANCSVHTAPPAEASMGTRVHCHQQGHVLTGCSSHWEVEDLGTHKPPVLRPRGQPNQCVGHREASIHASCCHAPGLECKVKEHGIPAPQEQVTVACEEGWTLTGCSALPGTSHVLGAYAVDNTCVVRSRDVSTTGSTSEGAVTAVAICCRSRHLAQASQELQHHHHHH

pIC50: 5.60
Substance: EGF-A peptide
